Assays:
human insulin = human insulin (Homo sapiens, UniProt P01308); test: Test of dissolution of human insulin at its isoelectric point; type: physicochemical; details: human insulin 100 IU/mL alone, pH 5.3
Source text: If an interaction exists between human insulin and the substituted anionic compound, it is then possible to dissolve the human insulin at its isoelectric point. […] The appearance of the solution is documented.

humans = details: injected subcutaneously, diabetic patients; cited from earlier work

Sequence of human insulin (P01308 25-54 limits assumed): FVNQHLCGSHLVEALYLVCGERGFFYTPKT
Sequence of human insulin (P01308 90-110 limits assumed): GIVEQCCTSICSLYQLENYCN

For “Human insulin: Human insulin, tested at 100 IU/mL alone in the dissolution test; isoelectric point 5.3”, the Visual appearance (human insulin) is given as “Turbid” and the “time to hypoglycemiant effect” value (humans) is given as 60 min.
